B1: Protein kinase MCK1 (Saccharomyces cerevisiae), P21965 (parent)
chain: MSTEEQNGVPLQRGSEFIADDVTSNKSNNTRRMLVKEYRKIGRGAFGTVVQAYLTQDKKNWLGPFAIKKVPAHTEYKSRELQILRIADHPNIVKLQYFFTHLSPQDNKVYQHLAMECLPETLQIEINRYVTNKLEMPLKHIRLYTYQIARGMLYLHGLGVCHRDIKPSNVLVDPETGVLKICDFGSAKKLEHNQPSISYICSRFYRAPELIIGCTQYTTQIDIWGLGCVMGEMLIGKAIFQGQEPLLQLREIAKLLGPPDKRFIFFSNPAYDGPLFSKPLFSGSSQQRFEKYFGHSGPDGIDLLMKILVYEPQQRLSPRRILAHQFFNELRNDDTFLPRGFTEPIKLPNLFDFNDFELQILGEFADKIKPTKVAE
B2: E3 ubiquitin-protein ligase UBR1 (Saccharomyces cerevisiae), P19812 (parent)
chain: MSVADDDLGSLQGHIRRTLRSIHNLPYFRYTRGPTERADMSRALKEFIYRYLYFVISNSGENLPTLFNAHPKQKLSNPELTVFPDSLEDAVDIDKITSQQTIPFYKIDESRIGDVHKHTGRNCGRKFKIGEPLYRCHECGCDDTCVLCIHCFNPKDHVNHHVCTDICTEFTSGICDCGDEEAWNSPLHCKAEEQENDISEDPATNADIKEEDVWNDSVNIALVELVLAEVFDYFIDVFNQNIEPLPTIQKDITIKLREMTQQGKMYERAQFLNDLKYENDYMFDGTTTAKTSPSNSPEASPSLAKIDPENYTVIIYNDEYHNYSQATTALRQGVPDNVHIDLLTSRIDGEGRAMLKCSQDLSSVLGGFFAVQTNGLSATLTSWSEYLHQETCKYIILWITHCLNIPNSSFQTTFRNMMGKTLCSEYLNATECRDMTPVVEKYFSNKFDKNDPYRYIDLSILADGNQIPLGHHKILPESSTHSLSPLINDVETPTSRTYSNTRLQHILYFDNRYWKRLRKDIQNVIIPTLASSNLYKPIFCQQVVEIFNHITRSVAYMDREPQLTAIRECVVQLFTCPTNAKNIFENQSFLDIVWSIIDIFKEFCKVEGGVLIWQRVQKSNLTKSYSISFKQGLYTVETLLSKVHDPNIPLRPKEIISLLTLCKLFNGAWKIKRKEGEHVLHEDQNFISYLEYTTSIYSIIQTAEKVSEKSKDSIDSKLFLNAIRIISSFLGNRSLTYKLIYDSHEVIKFSVSHERVAFMNPLQTMLSFLIEKVSLKDAYEALEDCSDFLKISDFSLRSVVLCSQIDVGFWVRNGMSVLHQASYYKNNPELGSYSRDIHLNQLAILWERDDIPRIIYNILDRWELLDWFTGEVDYQHTVYEDKISFIIQQFIAFIYQILTERQYFKTFSSLKDRRMDQIKNSIIYNLYMKPLSYSKLLRSVPDYLTEDTTEFDEALEEVSVFVEPKGLADNGVFKLKASLYAKVDPLKLLNLENEFESSATIIKSHLAKDKDEIAKVVLIPQVSIKQLDKDALNLGAFTRNTVFAKVVYKLLQVCLDMEDSTFLNELLHLVHGIFRDDELINGKDSIPEAYLSKPICNLLLSIANAKSDVFSESIVRKADYLLEKMIMKKPNELFESLIASFGNQYVNDYKDKKLRQGVNLQETEKERKRRLAKKHQARLLAKFNNQQTKFMKEHESEFDEQDNDVDMVGEKVYESEDFTCALCQDSSSTDFFVIPAYHDHSPIFRPGNIFNPNEFMPMWDGFYNDDEKQAYIDDDVLEALKENGSCGSRKVFVSCNHHIHHNCFKRYVQKKRFSSNAFICPLCQTFSNCTLPLCQTSKANTGLSLDMFLESELSLDTLSRLFKPFTEENYRTINSIFSLMISQCQGFDKAVRKRANFSHKDVSLILSVHWANTISMLEIASRLEKPYSISFFRSREQKYKTLKNILVCIMLFTFVIGKPSMEFEPYPQQPDTVWNQNQLFQYIVRSALFSPVSLRQTVTEALTTFSRQFLRDFLQGLSDAEQVTKLYAKASKIGDVLKVSEQMLFALRTISDVRMEGLDSESIIYDLAYTFLLKSLLPTIRRCLVFIKVLHELVKDSENETLVINGHEVEEELEFEDTAEFVNKALKMITEKESLVDLLTTQESIVSHPYLENIPYEYCGIIKLIDLSKYLNTYVTQSKEIKLREERSQHMKNADNRLDFKICLTCGVKVHLRADRHEMTKHLNKNCFKPFGAFLMPNSSEVCLHLTQPPSNIFISAPYLNSHGEVGRNAMRRGDLTTLNLKRYEHLNRLWINNEIPGYISRVMGDEFRVTILSNGFLFAFNREPRPRRIPPTDEDDEDMEEGEDGFFTEGNDEMDVDDETGQAANLFGVGAEGIAGGGVRDFFQFFENFRNTLQPQGNGDDDAPQNPPPILQFLGPQFDGATIIRNTNPRNLDEDDSDDNDDSDEREIW
partner: B1 chain

Variants of B1 are the subject of the first assay. To be noted: with ubr1_yeast UBR1, P19812.
Turning to MSTEEQNGVPLQRGSEFIADDVTSNKSNNTRRMLVKEYRKIGRGAFGTVVQAYLTQDKKNWLGPFAIKKVPAHTEYKSRELQILRIADHPNIVKLQYFFTHLSPQDNKVYQHLAMECLPETLQIEINRYVTNKLEMPLKHIRLYTYQIARGMLYLHGLGVCHRAIKPSNVLVDPETGVLKICDFGSAKKLEHNQPSISYICSRFYRAPELIIGCTQYTTQIDIWGLGCVMGEMLIGKAIFQGQEPLLQLREIAKLLGPPDKRFIFFSNPAYDGPLFSKPLFSGSSQQRFEKYFGHSGPDGIDLLMKILVYEPQQRLSPRRILAHQFFNELRNDDTFLPRGFTEPIKLPNLFDFNDFELQILGEFADKIKPTKVAE [D164A], the “effect of a mutation on the interaction” value is given as “disrupting interaction”.

The variants in a further assay derive from B2. To be noted: with mck1_yeast MCK1, P21965.
For Y277F, the “effect of a mutation on the interaction” value is recorded as “disrupting interaction”.

Values taken from IntAct's records for PubMed 19033468.
